Starred links: 1 amine or outer side, 2 acyl side, 3 side chain; linkers in the order of their positions; H or OH if unused. Positions of bridges follow the written chain, without caps; N, C: chain ends. Non-standard residues stand in square brackets, D forms with d. Primed or numbered codes have the meaning given here. dTyr(4-OMe)″ = O-methyl-D-tyrosine, COc1ccc(C[C@@H](N[*:1])C(=O)[*:2])cc1; dDip = N[C@@H](C(=O)O)C(c1ccccc1)c1ccccc1; dPhe(4-Br) = N[C@H](Cc1ccc(Br)cc1)C(=O)O; d2Nal = N[C@H](Cc1ccc2ccccc2c1)C(=O)O; d(αMeF) = C[C@@](N)(Cc1ccccc1)C(=O)O; dNMeF = CN[C@H](Cc1ccccc1)C(=O)O; Tic = O=C(O)[C@@H]1Cc2ccccc2CN1; dTic = O=C(O)[C@H]1Cc2ccccc2CN1; Cit = NC(=O)NCCC[C@H](N)C(=O)O; Nle = CCCC[C@H](N)C(=O)O; Aib = CC(C)(N)C(=O)O
B1: CTX-1615 (peptide)
peptide: Ac-R[Nle]CR[dTyr(4-OMe)″]R[dW]C-NH2
modifications: disulfide 3-8
SMILES: CCCC[C@H](NC(=O)[C@H](CCCNC(=N)N)NC(C)=O)C(=O)N[C@H]1CSSC[C@@H](C(N)=O)NC(=O)[C@@H](Cc2c[nH]c3ccccc23)NC(=O)[C@H](CCCNC(=N)N)NC(=O)[C@@H](Cc2ccc(OC)cc2)NC(=O)[C@H](CCCNC(=N)N)NC1=O
B2: CTX-1279 (peptide)
peptide: Ac-RC[dA]R[d(αMeF)]R[dW]C-NH2
modifications: disulfide 2-8
SMILES: CC(=O)N[C@@H](CCCNC(=N)N)C(=O)N[C@H]1CSSC[C@@H](C(N)=O)NC(=O)[C@@H](Cc2c[nH]c3ccccc23)NC(=O)[C@H](CCCNC(=N)N)NC(=O)[C@@](C)(Cc2ccccc2)NC(=O)[C@H](CCCNC(=N)N)NC(=O)[C@@H](C)NC1=O
B3: CTX-1260 (peptide)
peptide: Ac-RC[dA]R[dPhe(4-Br)]R[dA]C-NH2
modifications: disulfide 2-8
SMILES: CC(=O)N[C@@H](CCCNC(=N)N)C(=O)N[C@H]1CSSC[C@@H](C(N)=O)NC(=O)[C@@H](C)NC(=O)[C@H](CCCNC(=N)N)NC(=O)[C@@H](Cc2ccc(Br)cc2)NC(=O)[C@H](CCCNC(=N)N)NC(=O)[C@@H](C)NC1=O
B4: CTX-1255 (peptide)
peptide: Ac-RC[dA]R[dPhe(4-Br)]R[dF]C-NH2
modifications: disulfide 2-8
SMILES: CC(=O)N[C@@H](CCCNC(=N)N)C(=O)N[C@H]1CSSC[C@@H](C(N)=O)NC(=O)[C@@H](Cc2ccccc2)NC(=O)[C@H](CCCNC(=N)N)NC(=O)[C@@H](Cc2ccc(Br)cc2)NC(=O)[C@H](CCCNC(=N)N)NC(=O)[C@@H](C)NC1=O
B5: CTX-1274 (peptide)
peptide: Ac-RC[dA]R[dW]RWC-NH2
modifications: disulfide 2-8
SMILES: CC(=O)N[C@@H](CCCNC(=N)N)C(=O)N[C@H]1CSSC[C@@H](C(N)=O)NC(=O)[C@H](Cc2c[nH]c3ccccc23)NC(=O)[C@H](CCCNC(=N)N)NC(=O)[C@@H](Cc2c[nH]c3ccccc23)NC(=O)[C@H](CCCNC(=N)N)NC(=O)[C@@H](C)NC1=O
B6: CTX-1283 (peptide)
peptide: Ac-RC[dA]R[dF][dR][dW]C-NH2
modifications: disulfide 2-8
SMILES: CC(=O)N[C@@H](CCCNC(=N)N)C(=O)N[C@H]1CSSC[C@@H](C(N)=O)NC(=O)[C@@H](Cc2c[nH]c3ccccc23)NC(=O)[C@@H](CCCNC(=N)N)NC(=O)[C@@H](Cc2ccccc2)NC(=O)[C@H](CCCNC(=N)N)NC(=O)[C@@H](C)NC1=O
B7: CTX-1254 (peptide)
peptide: Ac-RC[dA]R[dPhe(4-Br)]R[d2Nal]C-NH2
modifications: disulfide 2-8
SMILES: CC(=O)N[C@@H](CCCNC(=N)N)C(=O)N[C@H]1CSSC[C@@H](C(N)=O)NC(=O)[C@@H](Cc2ccc3ccccc3c2)NC(=O)[C@H](CCCNC(=N)N)NC(=O)[C@@H](Cc2ccc(Br)cc2)NC(=O)[C@H](CCCNC(=N)N)NC(=O)[C@@H](C)NC1=O
B8: CTX-1614 (peptide)
peptide: Ac-R[Nle]CR[dTyr(4-OMe)″]RWC-NH2
modifications: disulfide 3-8
SMILES: CCCC[C@H](NC(=O)[C@H](CCCNC(=N)N)NC(C)=O)C(=O)N[C@H]1CSSC[C@@H](C(N)=O)NC(=O)[C@H](Cc2c[nH]c3ccccc23)NC(=O)[C@H](CCCNC(=N)N)NC(=O)[C@@H](Cc2ccc(OC)cc2)NC(=O)[C@H](CCCNC(=N)N)NC1=O
B9: CTX-1282 (peptide)
peptide: Ac-RC[dA]R[dF][dR]WC-NH2
modifications: disulfide 2-8
SMILES: CC(=O)N[C@@H](CCCNC(=N)N)C(=O)N[C@H]1CSSC[C@@H](C(N)=O)NC(=O)[C@H](Cc2c[nH]c3ccccc23)NC(=O)[C@@H](CCCNC(=N)N)NC(=O)[C@@H](Cc2ccccc2)NC(=O)[C@H](CCCNC(=N)N)NC(=O)[C@@H](C)NC1=O
B10: CTX-1253 (peptide)
peptide: Ac-RC[dA]R[dPhe(4-Br)][Cit][dW]C-NH2
modifications: disulfide 2-8
SMILES: CC(=O)N[C@@H](CCCNC(=N)N)C(=O)N[C@H]1CSSC[C@@H](C(N)=O)NC(=O)[C@@H](Cc2c[nH]c3ccccc23)NC(=O)[C@H](CCCNC(N)=O)NC(=O)[C@@H](Cc2ccc(Br)cc2)NC(=O)[C@H](CCCNC(=N)N)NC(=O)[C@@H](C)NC1=O
B11: CTX-1272 (peptide)
peptide: Ac-RC[dA]R[dNMeF]R[dW]C-NH2
modifications: disulfide 2-8
SMILES: CC(=O)N[C@@H](CCCNC(=N)N)C(=O)N[C@H]1CSSC[C@@H](C(N)=O)NC(=O)[C@@H](Cc2c[nH]c3ccccc23)NC(=O)[C@H](CCCNC(=N)N)NC(=O)[C@@H](Cc2ccccc2)N(C)C(=O)[C@H](CCCNC(=N)N)NC(=O)[C@@H](C)NC1=O

Molecular target: human MC3R (human, UniProt P41968 1-323)
Experiment: cell-based or functional assay

Sequence of human MC3R (P41968 whole entry): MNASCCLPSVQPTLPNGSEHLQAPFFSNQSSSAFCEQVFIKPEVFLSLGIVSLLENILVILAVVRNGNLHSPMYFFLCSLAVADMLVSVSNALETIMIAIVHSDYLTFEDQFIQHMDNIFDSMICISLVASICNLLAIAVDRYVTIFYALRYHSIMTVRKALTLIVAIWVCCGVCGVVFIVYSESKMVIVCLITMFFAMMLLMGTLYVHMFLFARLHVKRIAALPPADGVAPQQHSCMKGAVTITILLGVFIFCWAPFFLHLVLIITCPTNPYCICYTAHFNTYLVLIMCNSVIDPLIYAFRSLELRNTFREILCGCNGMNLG

Binder	% max activation [%]	cAMP EC50 [nM]
B1	55	27
B2	20	43
Ac-RC[dA]R[dPhe(4-Br)]R[dTic]C-NH2 (disulfide 2-8) [CTX-1256]	17	592
Ac-RC[Aib][Cit][dTyr(4-OMe)″]R[dW]C-NH2 (disulfide 2-8) [CTX-1600]	–	> 10000
B3	13	239
B4	28	7.5
Ac-RC[dA]R[dPhe(4-Br)]R[Tic]C-NH2 (disulfide 2-8) [CTX-1259]	27	146
Ac-RC[dA]R[dDip]R[dW]C-NH2 (disulfide 2-8) [CTX-1280]	2.6	541
Ac-RC[dA]R[dTic]R[dW]C-NH2 (disulfide 2-8) [CTX-1273]	3.7	4780
B5	5.4	164
B6	7.8	719
B7	5.5	9.2
B8	28	3.2
B9	4.2	545
B10	9.2	4
B11	0.9	671
Ac-RC[Aib]R[dF][Cit][dW]C-NH2 (disulfide 2-8) [CTX-1271]	16	117

Molecular target: T1, human MC4R receptor (human, UniProt P32245 1-332)
Experiment: cell-based or functional assay

T1 sequence (P32245 whole entry): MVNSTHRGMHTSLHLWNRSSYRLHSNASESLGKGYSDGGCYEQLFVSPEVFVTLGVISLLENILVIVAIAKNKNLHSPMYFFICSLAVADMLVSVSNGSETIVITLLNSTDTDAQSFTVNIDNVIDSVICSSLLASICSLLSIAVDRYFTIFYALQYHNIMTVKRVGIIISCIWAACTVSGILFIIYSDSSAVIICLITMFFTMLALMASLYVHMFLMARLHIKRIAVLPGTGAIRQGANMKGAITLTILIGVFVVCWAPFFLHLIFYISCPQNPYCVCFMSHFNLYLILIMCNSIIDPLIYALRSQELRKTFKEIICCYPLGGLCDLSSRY

Binder	% max activation [%]	cAMP EC50 [nM]
B1	68	13
B2	79	72
Ac-RC[dA]R[dPhe(4-Br)]R[dTic]C-NH2 (disulfide 2-8) [CTX-1256]	29	7240
Ac-RC[Aib][Cit][dTyr(4-OMe)″]R[dW]C-NH2 (disulfide 2-8) [CTX-1600]	58	142
B3	38	4930
B4	60	31
Ac-RC[dA]R[dPhe(4-Br)]R[Tic]C-NH2 (disulfide 2-8) [CTX-1259]	70	1250
Ac-RC[dA]R[dDip]R[dW]C-NH2 (disulfide 2-8) [CTX-1280]	4	438
Ac-RC[dA]R[dTic]R[dW]C-NH2 (disulfide 2-8) [CTX-1273]	32	7430
B5	77	1400
B6	55	5860
B7	22	4.2
B8	41	1.7
B9	72	1420
B10	58	7.6
B11	5.3	750
Ac-RC[Aib]R[dF][Cit][dW]C-NH2 (disulfide 2-8) [CTX-1271]	95	72

Molecular target: T1, human MC4R receptor
Experiment: cell-based or functional assay
Remark: another data set of the same source

Binder	MC4R selectivity vs MC1R	MC4R selectivity vs MC3R
B1	0.26	2.14
B2	0.83	0.61
Ac-RC[dA]R[dPhe(4-Br)]R[dTic]C-NH2 (disulfide 2-8) [CTX-1256]	0.003	0.08
Ac-RC[Aib][Cit][dTyr(4-OMe)″]R[dW]C-NH2 (disulfide 2-8) [CTX-1600]	> 70	> 70
B3	0.01	0.05
B4	0.05	0.24
Ac-RC[dA]R[dPhe(4-Br)]R[Tic]C-NH2 (disulfide 2-8) [CTX-1259]	0.01	0.12
Ac-RC[dA]R[dDip]R[dW]C-NH2 (disulfide 2-8) [CTX-1280]	0.1	1.24
Ac-RC[dA]R[dTic]R[dW]C-NH2 (disulfide 2-8) [CTX-1273]	0.05	0.64
B5	0.19	0.12
B6	0.03	0.12
B7	0.26	2.19
B8	0.08	1.89
B9	0.14	0.38
B10	0.57	0.53
B11	0.21	0.9
Ac-RC[Aib]R[dF][Cit][dW]C-NH2 (disulfide 2-8) [CTX-1271]	2.9	1.63
